For one substance, stoichiometry N results are on record in publication PMC9342783.

Assay [1] has as its target membrane translocated mature FopA (Francisella tularensis outer membrane protein A) with C-terminal octa-histidine tag (F. tularensis subsp. tularensis strain SCHU S4). Put plainly: native gel or EMSA. (In EMSA bound probe runs differently from free probe, usually more slowly.)
Assay [2] has the same target. In words: small angle X-ray scattering (SEC-SAXS). On the technique in general: Size exclusion chromatography separates by hydrodynamic size, large species first.

A word on the stoichiometry N: it is the number of molecules, sites or subunits per partner or assembly. Consider “membrane translocated mature FopA (Francisella tularensis outer membrane protein A) with C-terminal octa-histidine tag (natural protein)”, for which the stoichiometry N in assay [1] and in assay [2] was 2 in each case.
